# In patent publication US20020102234A1:
# Biological target: human IL-1R1 (IL-1 receptor type I), full length, expressed in transfected Jurkat E6.1 cells (human) (UniProt P14778)
# Test: cell-based or functional assay
# UniProt P14778, sequence (P14778 18-569): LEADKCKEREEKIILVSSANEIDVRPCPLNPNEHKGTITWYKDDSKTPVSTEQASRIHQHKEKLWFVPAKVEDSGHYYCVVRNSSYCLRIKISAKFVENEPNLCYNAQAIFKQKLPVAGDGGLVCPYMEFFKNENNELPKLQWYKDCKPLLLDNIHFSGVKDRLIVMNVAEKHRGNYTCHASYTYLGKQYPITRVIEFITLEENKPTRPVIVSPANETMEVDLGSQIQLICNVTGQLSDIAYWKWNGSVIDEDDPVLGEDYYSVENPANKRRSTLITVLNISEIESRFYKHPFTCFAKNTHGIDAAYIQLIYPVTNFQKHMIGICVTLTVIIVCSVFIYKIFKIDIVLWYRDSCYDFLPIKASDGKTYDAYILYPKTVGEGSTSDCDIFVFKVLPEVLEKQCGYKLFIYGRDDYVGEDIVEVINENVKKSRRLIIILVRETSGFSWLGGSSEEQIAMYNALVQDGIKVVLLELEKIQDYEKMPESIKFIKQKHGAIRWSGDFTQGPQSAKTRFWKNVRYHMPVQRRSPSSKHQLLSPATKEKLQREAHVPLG
substance,measurement,value
recombinant human IL-1RA (IL-1 receptor antagonist) (from UniProt P18510 26-177) (ligand),excess over IL-1α giving 50% inhibition of the NFκB reporter response (fold excess over IL-1α),1000
